Results from patent US20200079851A1 (University of Texas, published 2020).
Where a chain is given by its changes, count along the chain named.

Columns and labels:
human LILRB4 [1] = biological target: T1, human LILRB4 (human, UniProt Q8NHJ6 22-259, limits assumed); experiment: ELISA, OD450 against antibody concentration
T1 construct: also called leukocyte immunoglobulin-like receptor subfamily B member 4

human LILRB4 [2] = biological target: T1, human LILRB4; experiment: ELISA
human LILRB4 [3] = biological target: T1, human LILRB4; experiment: ELISA, OD450 against antibody concentration; remark: listed apart in the source
LILRB3 [4] = biological target: T2, LILRB3 (human, UniProt O75022 24-443, limits assumed); experiment: cross-reactivity ELISA (FIG. 46)
T2 construct: also called leukocyte immunoglobulin-like receptor subfamily B member 3
T2 sequence (O75022 24-443 limits assumed): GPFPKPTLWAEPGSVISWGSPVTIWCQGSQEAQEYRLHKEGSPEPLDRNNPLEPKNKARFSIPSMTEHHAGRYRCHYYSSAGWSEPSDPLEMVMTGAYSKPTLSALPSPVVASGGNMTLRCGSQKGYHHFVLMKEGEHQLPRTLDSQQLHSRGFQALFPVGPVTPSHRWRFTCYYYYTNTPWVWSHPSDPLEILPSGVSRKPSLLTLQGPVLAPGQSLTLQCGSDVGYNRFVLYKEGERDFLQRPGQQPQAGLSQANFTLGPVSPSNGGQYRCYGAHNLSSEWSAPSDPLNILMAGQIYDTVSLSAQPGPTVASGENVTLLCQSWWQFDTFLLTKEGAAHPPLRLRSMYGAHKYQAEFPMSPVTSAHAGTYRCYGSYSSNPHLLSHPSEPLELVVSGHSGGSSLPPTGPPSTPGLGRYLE

LILRB5 [5] = biological target: T3, LILRB5 (human, UniProt O75023 24-458, limits assumed); experiment: cross-reactivity ELISA (FIG. 46)
T3 sequence (O75023 24-458 limits assumed): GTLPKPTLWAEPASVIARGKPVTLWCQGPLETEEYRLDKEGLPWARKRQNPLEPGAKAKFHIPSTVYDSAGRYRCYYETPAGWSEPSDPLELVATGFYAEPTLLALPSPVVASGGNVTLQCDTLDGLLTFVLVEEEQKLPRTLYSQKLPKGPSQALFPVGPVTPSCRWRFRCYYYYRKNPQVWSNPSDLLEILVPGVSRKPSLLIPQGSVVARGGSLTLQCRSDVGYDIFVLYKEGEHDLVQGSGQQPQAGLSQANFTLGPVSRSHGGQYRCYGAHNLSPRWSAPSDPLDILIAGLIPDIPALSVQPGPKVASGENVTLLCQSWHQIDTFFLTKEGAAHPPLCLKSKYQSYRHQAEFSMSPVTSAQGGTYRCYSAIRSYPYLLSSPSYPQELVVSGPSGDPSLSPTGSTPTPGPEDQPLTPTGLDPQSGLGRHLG

[6] = biological target: T4, LILRB4 D1 (first Ig-like domain) Fc fusion protein (human, UniProt Q8NHJ6 27-118); experiment: matrix of binding to LILRB4 domain-Fc fusions (FIG. 47); ELISA per paragraph 433
T4 construct: also called D1 of LILRB4; not shown: Fc part
T4 sequence (Q8NHJ6 27-118): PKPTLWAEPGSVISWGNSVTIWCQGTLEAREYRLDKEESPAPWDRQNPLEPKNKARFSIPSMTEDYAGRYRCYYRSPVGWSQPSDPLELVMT

D2 = biological target: T5, D2; experiment: as above
T5 construct: also called LILRB4 D2-hIgG1-Fc; second Ig-like domain of LILRB4 as Fc fusion
T5 sequence (fusion chain, as listed by the source): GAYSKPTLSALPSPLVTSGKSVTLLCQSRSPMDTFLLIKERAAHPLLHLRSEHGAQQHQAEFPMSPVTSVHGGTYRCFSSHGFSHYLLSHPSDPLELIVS

SR = biological target: T6, SR; experiment: as above
T6 construct: also called LILRB4 SR-hIgG1-Fc; stalk region of LILRB4 as Fc fusion
T6 sequence (fusion chain, as listed by the source): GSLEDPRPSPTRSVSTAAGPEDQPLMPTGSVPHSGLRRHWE

D2-SR-M16(210-259) = experiment: ELISA, mAb 139 titrated
Sequence of D2-SR-M16(210-259) (chain, as listed by the source): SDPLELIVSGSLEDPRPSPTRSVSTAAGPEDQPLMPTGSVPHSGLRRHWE

LILRB1 = biological target: T7, LILRB1 (human, UniProt Q8NHL6 24-458, limits assumed); experiment: cross-reactivity test on the LILRBs (ELISA per paragraph 433)
T7 construct: also called leukocyte immunoglobulin-like receptor subfamily B member 1
T7 sequence (Q8NHL6 24-458 limits assumed): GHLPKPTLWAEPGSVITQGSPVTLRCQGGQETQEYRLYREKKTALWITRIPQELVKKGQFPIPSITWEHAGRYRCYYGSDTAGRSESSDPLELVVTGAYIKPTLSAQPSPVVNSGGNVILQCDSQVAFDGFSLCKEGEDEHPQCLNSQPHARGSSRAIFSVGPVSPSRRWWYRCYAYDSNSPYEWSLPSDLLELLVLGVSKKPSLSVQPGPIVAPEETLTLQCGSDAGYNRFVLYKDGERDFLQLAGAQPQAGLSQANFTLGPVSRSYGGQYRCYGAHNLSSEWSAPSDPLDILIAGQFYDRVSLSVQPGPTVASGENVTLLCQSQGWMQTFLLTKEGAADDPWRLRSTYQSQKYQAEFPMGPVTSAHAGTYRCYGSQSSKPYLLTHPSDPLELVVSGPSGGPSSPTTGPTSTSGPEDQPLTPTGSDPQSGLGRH

D2-SR-Fc = biological target: T8, D2-SR-Fc; experiment: ELISA, mAb titrated
T8 construct: also called D2-SR-WT
T8 sequence (Q8NHJ6 119-259): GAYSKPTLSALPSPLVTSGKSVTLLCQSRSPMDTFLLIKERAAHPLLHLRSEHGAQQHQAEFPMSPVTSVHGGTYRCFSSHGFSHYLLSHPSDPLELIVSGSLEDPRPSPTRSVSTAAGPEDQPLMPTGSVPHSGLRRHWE

human LILRB4 [7] = biological target: T1, human LILRB4; experiment: ELISA, OD450 against antibody concentration; remark: listed apart in the source
human LILRB4 [8] = biological target: T1, human LILRB4; experiment: ELISA, mAb titrated on the WT protein of the LILRB4 mutant series of FIG. 52 (construct limits not stated)
LILRB3 [9] = biological target: T2, LILRB3; experiment: cross-reactivity test on the LILRBs (ELISA per paragraph 433)
LILRB2 [10] = biological target: T9, LILRB2 (human, UniProt Q8N423 22-458, limits assumed); experiment: as above
T9 construct: also called leukocyte immunoglobulin-like receptor subfamily B member 2
T9 sequence (Q8N423 22-458 limits assumed): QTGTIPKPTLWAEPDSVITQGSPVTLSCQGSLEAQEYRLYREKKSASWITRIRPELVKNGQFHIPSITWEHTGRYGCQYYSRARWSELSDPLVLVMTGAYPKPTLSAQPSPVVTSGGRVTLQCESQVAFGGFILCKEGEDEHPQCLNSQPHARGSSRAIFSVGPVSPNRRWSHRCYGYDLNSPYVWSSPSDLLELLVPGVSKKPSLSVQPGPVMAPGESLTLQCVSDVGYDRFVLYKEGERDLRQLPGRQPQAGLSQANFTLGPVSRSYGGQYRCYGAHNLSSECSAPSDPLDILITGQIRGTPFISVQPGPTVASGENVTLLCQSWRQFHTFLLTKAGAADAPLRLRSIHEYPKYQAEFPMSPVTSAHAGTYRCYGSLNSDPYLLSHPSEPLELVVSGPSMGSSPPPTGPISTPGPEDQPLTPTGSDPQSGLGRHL

LILRB5 [11] = biological target: T3, LILRB5; experiment: as above
[12] = biological target: T4, LILRB4 D1 (first Ig-like domain) Fc …; experiment: ELISA, mAb titrated
LILRB4-ECD-Fc = biological target: T10, LILRB4-ECD-Fc (human, UniProt Q8NHJ6 27-259); experiment: ELISA, mAb titrated
T10 construct: also called LILRB4-Fc; LILRB4 ECD-Fc fusion protein; not shown: Fc part

human LILRB4 [13] = biological target: T1, human LILRB4; experiment: ELISA, OD450 against antibody concentration; remark: listed apart in the source
LILRB2 [14] = biological target: T9, LILRB2; experiment: flow cytometry on LILRB2-overexpressing 293T cells, mAb at 2 ug/ml
human LILRB4 [15] = biological target: T1, human LILRB4; experiment: reactivity table, assay not named on the sheet
LILRB3 [16] = biological target: T2, LILRB3; experiment: reactivity table, assay not named on the sheet
LILRB5 [17] = biological target: T3, LILRB5; experiment: reactivity table, assay not named on the sheet
human LILRB4 [18] = biological target: T1, human LILRB4; experiment: ELISA, OD450 against antibody concentration; remark: listed apart in the source
human LILRB4 [19] = biological target: T1, human LILRB4; experiment: ELISA, OD450 against antibody concentration; remark: listed apart in the source
human LILRB4 [20] = biological target: T1, human LILRB4; experiment: ELISA, OD450 against antibody concentration; remark: listed apart in the source
human LILRB4 [21] = biological target: T1, human LILRB4; experiment: ELISA, OD450 against antibody concentration; remark: listed apart in the source

B1: anti-LILRB4 rabbit monoclonal antibody #6 (antibody, V domains shown)
VH: QSVKESGGRLVTPGTPLTLTCTASGFSLSTYYIDWVRQAPGRGLEYIGVINPGGSAVYATWAKGRFTISRTSTTVDLKMTSLTTEDTATYFCARGWSRGDLWGQGTLVTISS
VL: ELDMTQTPSPVSAAVGGTVTIKCQSSQNVYDDDTLSWYQQKPGQPPKLLIYDASKLASGVPSRFKGSGSGTQFTLTISGVQCDDAATYYCLGVFHDAADNAFGGGTELEIK
notes: Rabbit mAb
B1 gave an EC50 (human LILRB4 [1]) of 0.0115 mg/L and an EC50 (human LILRB4 [2]) of 0.0767 nM.

B2: anti-LILRB4 rabbit monoclonal antibody #156-1 (antibody, V domains shown)
VH: QSVKESEGDLVKPGASLTLTCRASGFSFSSDYNMCWVRQAAGKGLEWIACIGVGTSGKTAYATWAKGRFTISRSSSTTVALQMTSLTVADTATYFCARPSYGSGGEGGGSGLWGPGTLVTISS
VL: ELDLTQTPASVSEPVGGTVTIKCQASQSIHSDLAWYQQKPGQRPKLLIYVASYLASGVPSRFSGSGSGTEYTLTISDLECADAATYYCQSTYYGSDYVGGAFGGGTEVVVK
notes: Rabbit mAb
For B2, the EC50 (human LILRB4 [2]) was 0.0828 nM and the EC50 (human LILRB4 [3]) was 0.0124 mg/L.

B3: anti-LILRB4 rabbit monoclonal antibody #139 (antibody, V domains shown)
VH: EQSLEESGGRLVTPGTPLTLTCTVSGFSLNSYAMAWVRQAPGKGLEWIGIIGLSTMTYYASWVNGRFTISKTSTTVDLKMTSLTTEDTATYFCVRNDVYWAFNLWGQGTLVTVSS
VL: ELDLTQTPSSVSAGVGGTVSISCQSSESVVNNHALSWYQQKPGQPPKLLIYKASTLASGVPSRFSGSGSGAQFTLTISGVQCDDAATYYCQGGFYSGISDYPFGGGTEVEIK
With B3 the binding result (LILRB3 [4]) was “binds”, the binding result (LILRB5 [5]) was “binds” and the EC50 (human LILRB4 [2]) was 0.0832 nM. B3: no binding [6]; binds (D2); no binding (SR). For the same binder, the binding result (D2-SR-M16(210-259)) was “no binding (tested: 1000 ng/ml)”, the binding result (LILRB1) was “no binding” and the “EC50 (read off the curve)” value (D2-SR-Fc) was about 0.06 mg/L. The EC50 (human LILRB4 [7]) was 0.0125 mg/L.

B4: anti-LILRB4 rabbit monoclonal antibody #128-3 (antibody, V domains shown)
VH: EQSLEESGGDLVTPGASLTLTCKASGIDFSNHYYIYWVRQAPGKGLEWIGCIFSGDSASTYYASWAKGRFTISKSSSPTVTLQMTSLTAADTATYFCARGMSTNDWASDLWGPGTMVTVSS
VL: ELVMTQTPASVSAAVGGTVTINCQASESINSIYLAWYQQKPGQRPKLLIYRASTLASGVSSRFKGSASGTGFTLTISDLECADAATYYCQQSYDWGDVENTFGGGTEVEIK
In the case of B4, the “EC50 (read off the curve)” value (human LILRB4 [8]) is reported as about 0.01 mg/L, the EC50 (human LILRB4 [2]) is reported as 0.184 nM and the binding result (D2) is reported as “no binding”. B4: no binding (SR); no binding (LILRB1); no binding (LILRB3 [9]). The binding result (LILRB2 [10]) was “no binding”, the binding result (LILRB5 [11]) was “no binding” and the “EC50 (read off the curve)” value [12] was about 0.02 mg/L. The “EC50 (read off the curve)” value (LILRB4-ECD-Fc) was about 0.02 mg/L and the EC50 (human LILRB4 [13]) was 0.0276 mg/L.

B5: anti-LILRB mAb C39 (antibody, V domains shown)
VH: EVQLVESGGGLVQPGGSLKLSCAASGFTFSSYGMSWVRQTPDKRLELVATIDSNGGGTYYPDSVKGRFTISRDNAKNTLYLQMSSLKSEDTAMHYCARDGGGSYGYYYAMDYWGQGTSVTVSS
VL: DIVMSQSPSSLAVSAGEKVTMRCKSSQSLLNSRTRKSYLAWYQQKSGQSPKLLIYWASTRESGVPDRFTGSGSGTDFTLTISSVQAEDLAVYYCKQSYNLPWTFGGGTKLEIK
notes: mAb against LILRB2
B5 was tested, and the “% of cells in the positive gate” value (LILRB2 [14]) was 18.7%, the binding result (human LILRB4 [15]) was “binds” and the binding result (LILRB3 [16]) was “binds”. B5: binds (LILRB5 [17]).

B6: anti-LILRB4 rabbit monoclonal antibody #129 (antibody, V domains shown)
VH: EQSVKESGGGLVKPGASLTLTCTASGFSFSSSYHMCWVRQAPGKGLEWIGCIATGYGSTYYASWAKGRFTISKTSSTTVTLQVPSLTAADTATCFCARGYYRYTSDSYGYFDLWGPGTLVTISS
VL: ELVLTQTASPVSAAVGGTVTVNCQASQSISSGYLSWYQQKPGQPPKLLIYYASRLASGVPSRFSGSGSGTEYTLTISGVQCDDAATYYCLYVSYDGTTTDNAFGGGTEVEIK
In the case of B6, the EC50 (human LILRB4 [18]) is reported as 0.0135 mg/L, the EC50 (human LILRB4 [2]) is reported as 0.0901 nM and the binding result (D2) is reported as “no binding”. B6: no binding (SR); no binding (LILRB1); no binding (LILRB3 [9]). B6: no binding (LILRB2 [10]); no binding (LILRB5 [11]).

B7: anti-LILRB4 rabbit monoclonal antibody #71-1 (antibody, V domains shown)
VH: QSVEESGGGLVKPGASLTLTCTASGFSFSSSYHMCWVRQAPGKGLEWIGCIATGYGSTYYASWAKGRFTISKTSSTTVTLQVPSLTAADTATCFCARGYYRYTSDSYGYFDLWGPGTLVTISS
VL: B6 VL with V3D, D95S, E108D
notes: Rabbit mAb
With B7 the EC50 (human LILRB4 [19]) was 0.02 mg/L and the EC50 (human LILRB4 [2]) was 0.134 nM.

B8: anti-LILRB4 rabbit monoclonal antibody #214 (antibody, V domains shown)
VH: QSVKESGGRLVTPGTPLTLTCTVSGFSLSSYWMHWVRQAPGKGLEWVGVVSVSGNFYYATWAKGRFTISKTSTTVDLKITSPTIEDTAFYFCTMSFALWGQGTLVTISS
VL: ELVMTQTASPVSAAVGGTVTINCQSSQSVYSNNNLGWLKQKPGQPPKELIYYASTLASGVPSRFKGSGSGTQFTLTISDLECDDAATYYCVGGYGCSSADCSVFGGGTEVEIK
notes: Rabbit mAb
B8 was tested, and the EC50 (human LILRB4 [20]) was 0.00764 mg/L.

B9: anti-LILRB4 rabbit monoclonal antibody #210 (antibody, V domains shown)
VH: EQSVEESGGRLVTPGTPLTLTCTVSGFSLSSYIMGWVRQARGKGLEYIGAINTDGATYYATWAKGRFTISRTSTTVHLKVTSPTTEDTATYFCARSLAPGDSNINLWGQGTLVTISS
VL: ELVLTQTPSPVSAAVGGTVTISCQSSESVYRNNRLAWYQQKPGQPPKRLIYLASTLASGVPSRFKGSGSGTQFTLTISDVQCDDAAAYYCAGDSGVGIIAFGGGTEVEIK
In the case of B9, the binding result (LILRB3 [4]) is reported as “binds”, the binding result (LILRB5 [5]) is reported as “binds” and the EC50 (human LILRB4 [21]) is reported as 0.0149 mg/L. For the same binder, the EC50 (human LILRB4 [2]) was 0.0997 nM, the binding result (D2) was “no binding” and the binding result (SR) was “no binding”. B9: no binding (LILRB1); no binding (LILRB2 [10]).
